T1: bL4_C36 (HIV-1 gp41 HR2-derived biotinylated peptide C36) (HIV-1 HXB2, N-terminal biotin; C-terminal amide)
T1 construct: also called gp41 C36 target peptide; control peptide C36
T1 peptide: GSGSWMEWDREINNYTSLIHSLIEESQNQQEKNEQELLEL

B1: Alphabody 'scAB013_C2' (designed binder)
chain: MSIEEIQKQIAAIQKQIAAIQKQIYRMTGGSSGGSMQMYTIQIQILIIQAQIQQIQNQIELMTLGGSSGGMSIEEIQKQIAAIQKQIAAIQKQIYRMTPLEHHHHHH
notes: Single-chain Alphabody that mimics gp41 HR2 (grafted B-helix), made in E. coli; also called wild type scAB013_C2
B2: Alphabody 'scAB_Env03' (designed binder)
chain: MGHHHHHHHHHHSSGHIEGRHMSIEEIQKPIATIQEAIAWIQKKIYMMTGGSGGGSGGGSGGGSGMSIEEIQKQIAAIQKQIAAIQKQIYAMTGGSGGGSGGGSGGGSGMSIEEIQKQIVAIMEQIVAIVKQISAMTP
notes: The tag of the construct tested is not described; also called scAB013_Env03

Key:
[1] = biological target: T1, bL4_C36 (HIV-1 gp41 HR2-derived …); assay: ELISA, biotinylated peptide on streptavidin, anti-His-HRP detection, apparent KD
[2] = biological target: T2, Biotinylated N51 (HIV-1 gp41 HR1-derived peptide, residues 540 to 590 of HIV-1 HXB2) (HIV-1 HXB2, N-terminal biotin); assay: ELISA, biotinylated peptide on streptavidin, anti-His-HRP detection, sigmoid fit, apparent KD
T2 construct: Immobilised through biotin on streptavidin; also called HIV-1 N51; biotinylated HIV-1 N51

[3] = biological target: T2, Biotinylated N51 (HIV-1 gp41 …); assay: SPR (BIAcore), biotinylated N51 on streptavidin chip, 1:1 Langmuir fit
[4] = biological target: T1, bL4_C36 (HIV-1 gp41 HR2-derived …); assay: ELISA, biotinylated peptide on streptavidin, anti-His-HRP detection, sigmoid fit, apparent KD

Binder	Kd [1]	Kd [2]	Kd [3]	koff [3]	kon [3]	Kd [4]
B1	> 10000 nM	18 nM	2.07 nM	0.000209 s⁻¹	101000 M⁻¹ s⁻¹	
B2						211 nM

Source: EP2661444B1 (Complix SA, dated 2015)
